# B1: catalase: 2× crystallized bovine liver catalase (Sigma C100-58MG; 056K7010), a polypeptide enzyme (protein, UniProt P00432 2-527, looked up)
# Catalase: ADNRDPASDQMKHWKEQRAAQKPDVLTTGGGNPVGDKLNSLTVGPRGPLLVQDVVFTDEMAHFDRERIPERVVHAKGAGAFGYFEVTHDITRYSKAKVFEHIGKRTPIAVRFSTVAGESGSADTVRDPRGFAVKFYTEDGNWDLVGNNTPIFFIRDALLFPSFIHSQKRNPQTHLKDPDMVWDFWSLRPESLHQVSFLFSDRGIPDGHRHMNGYGSHTFKLVNANGEAVYCKFHYKTDQGIKNLSVEDAARLAHEDPDYGLRDLFNAIATGNYPSWTLYIQVMTFSEAEIFPFNPFDLTKVWPHGDYPLIPVGKLVLNRNPVNYFAEVEQLAFDPSNMPPGIEPSPDKMLQGRLFAYPDTHRHRLGPNYLQIPVNCPYRARVANYQRDGPMCMMDNQGGAPNYYPNSFSAPEHQPSALEHRTHFSGDVQRFNSANDDNVTQVRTFYLKVLNEEQRKRLCENIAGHLKDAQLFIQKKAVKNFSDVHPEYGSRIQALLDKYNEEKPKNAVHTYVQHGSHLSAREKANL
# Assays:
# [1] = cited from earlier work
# [2] = catalysis of 5% hydrogen peroxide solution by plasma-deposited catalase coating; assay type: biochemical, bovine; settings: for catalytic activity after molecular plasma deposition: deposited 10 min on aluminum oxide disk, placed in 5% hydrogen peroxide
# Description: Using the apparatus illustrated in FIG. 2, the high voltage power supply was attached to a 304 stainless steel, 18 gauge needle set at −5000V. The substrate was an aluminum oxide disk ¼″ thick by 1.5″ in diameter, having an area of approximately 11 sq cm and set at a potential of 5000 V. The substrate was centered and placed 5 cm from the hole in the chamber. The chamber was pumped to 40 mTorr and the flow of the colloidal suspension initiated. The deposition onto the substrate was allowed to proceed for 10 minutes. At the end of the deposition process, the substrate was removed from the chamber and the sample was placed in a 5% solution of hydrogen peroxide.
# The deposition was repeated twice under the same conditions, except that after the substrate was removed from the chamber, the samples were placed in an ultrasonic water bath for 10 min. Additionally, one of the samples was maintained at 10° C. for 72 hr after removal from the bath.
# [3] = activity of the catalase colloidal suspension before deposition; assay type: biochemical, bovine; settings: colloidal suspension in water with 0.1% thymol, protein 33 mg/ml
# Experimental: 25 ml of a 2× crystallized bovine liver catalase (Sigma C100-58MG; 056K7010) colloidal suspension in water with 0.1% thymol was prepared. Protein concentration was 33 mg/ml with an activity of 4.1×10^4 U/ml.
molecule,measurement,setting,value
NCCCC[C@H](N)C(=O)O [Lysine],water solubility (in words),[1],highly water soluble
Nc1ncnc2nc[nH]c12 [adenine],water solubility,[1],500 µg/mL
Nc1cc[nH]c(=O)n1 [cytosine],water solubility,[1],insoluble
Nc1nc2nc[nH]c2c(=O)[nH]1 [guanine],water solubility,[1],insoluble
B1,catalytic activity after deposition and ultrasonic water bath,"[2]; coated sample in ultrasonic water bath 10 min, then 5% hydrogen peroxide",produced bubbling of oxygen from the surface of the substrate
same,catalytic activity after molecular plasma deposition,[2],producing bubbling of oxygen from the surface
same,catalytic activity after molecular plasma deposition,[2]; listed as Catalase,without loss of catalytic activity
same,"catalytic activity after deposition, ultrasonic water bath and storage","[2]; ultrasonic water bath 10 min, then 10° C. for 72 hr, then 5% hydrogen peroxide",produced bubbling of oxygen from the surface of the substrate
same,activity of suspension,[3],4.1×10^4 U/ml

# Reference: patent US7250195B1, “Molecular plasma deposition of colloidal materials” (Ionic Fusion Corporation, priority 2006, dated 2007)
